Experimental data from patent publication US20240132578A1.

Key:
[1] = molecular target: HIV-1 94UG103 envelope glycoprotein (Env) on pseudovirus (HIV-1); assay: cell-based or functional assay
[2] = molecular target: HIV-1 MGRM-D-018 envelope glycoprotein (Env) on pseudovirus (HIV-1); assay: cell-based or functional assay
[3] = molecular target: HIV-1 MGRM-AG-005 envelope glycoprotein (Env) on pseudovirus (HIV-1); assay: cell-based or functional assay
[4] = molecular target: HIV-1 92UG005 envelope glycoprotein (Env) on pseudovirus (HIV-1); assay: cell-based or functional assay
[5] = molecular target: aMLV envelope protein on pseudovirus (negative control virus); assay: cell-based or functional assay
[6] = molecular target: HIV-1 MGRM-A-010 envelope glycoprotein (Env) on pseudovirus (HIV-1); assay: cell-based or functional assay
[7] = molecular target: HIV-1 JRCSF envelope glycoprotein (Env) on pseudovirus (HIV-1) (UniProt P20871); assay: cell-based or functional assay
[8] = molecular target: HIV-1 Env of pseudovirus MGRM-F1-013 (clade F) (HIV-1); assay: cell-based or functional assay
[9] = molecular target: HIV-1 Env of isolate 92UG005 (Clade D) (HIV-1); assay: cell-based or functional assay
[10] = molecular target: HIV-1 Env of isolate IAVI-C22 (Clade C) (HIV-1); assay: cell-based or functional assay
[11] = molecular target: HIV-1 Env of isolate 92BR020 (Clade B) (HIV-1); assay: cell-based or functional assay
[12] = molecular target: HIV-1 93UG077 Env (HIV-1); assay: cell-based or functional assay
[13] = molecular target: HIV-1 JR-CSF Env N262A (HIV-1 (isolate JR-CSF)) (UniProt P20871); assay: cell-based or functional assay
HIV-1 APV17 Env (HIV-1) = assay: cell-based or functional assay
[14] = molecular target: HIV-1 MGRM-AG-005 Env (HIV-1); assay: cell-based or functional assay
[15] = molecular target: HIV-1 envelope glycoprotein (Env) of isolate MG RM-A-002, subtype A (HIV-1); assay: cell-based or functional assay
[16] = molecular target: HIV-1 JR-CSF Env T320A (HIV-1 (isolate JR-CSF, clade B)) (UniProt P20871); assay: cell-based or functional assay
[17] = molecular target: HIV-1 JR-CSF Env Q337A (HIV-1 isolate JR-CSF) (UniProt P20871); assay: cell-based or functional assay
[18] = molecular target: HIV-1 envelope glycoprotein (Env) of isolate JR-FL, on pseudovirus (HIV-1); assay: cell-based or functional assay
[19] = molecular target: HIV-1 JR-CSF envelope protein (Env) on pseudotyped virus (HIV-1 isolate JR-CSF) (UniProt P20871); assay: cell-based or functional assay
[20] = molecular target: HIV-1 NL43 envelope protein (Env) on pseudotyped virus (HIV-1 strain NL43); assay: cell-based or functional assay
[21] = molecular target: HIV-1 93IN905 envelope protein (Env) on pseudotyped virus (HIV-1 strain 93IN905); assay: cell-based or functional assay
[22] = molecular target: HIV-1 JR-CSF Env N355A (HIV-1 isolate JR-CSF) (UniProt P20871); assay: cell-based or functional assay
[23] = molecular target: HIV-1 JR-CSF Env V292A (HIV-1 (isolate JR-CSF, clade B)) (UniProt P20871); assay: cell-based or functional assay
[24] = molecular target: HIV-1 JR-CSF Env P299A (HIV-1 (isolate JR-CSF, clade B)) (UniProt P20871); assay: cell-based or functional assay
[25] = molecular target: HIV-1 envelope glycoprotein (Env) of isolate 94UG103 (HIV-1); assay: cell-based or functional assay
[26] = molecular target: JR-FL GP120 ΔV3 (HIV-1 JR-FL); assay: ELISA, antigen-coated wells, mAb titrated; EC50 by nonlinear regression
[27] = molecular target: HIV-1 Env of isolate APV-6 (Clade B) (HIV-1); assay: cell-based or functional assay
[28] = molecular target: HIV-1 Env of isolate IAVI-C18 (Clade C) (HIV-1); assay: cell-based or functional assay

PGT-143 (4980_N08) (antibody)
IC50, pseudovirus neutralization [1]: > 10 µg/mL | IC50, pseudovirus neutralization [2]: > 10 µg/mL | IC50, pseudovirus neutralization [3]: 0.244 µg/mL | IC50, pseudovirus neutralization [4]: > 10 µg/mL | IC50, pseudovirus neutralization [5]: > 10 µg/mL | IC50, pseudovirus neutralization [6]: 0.0657 µg/mL | IC50, pseudovirus neutralization [7]: 0.0064 µg/mL

2F5 (antibody)
IC50 [8]: 4.57 µg/mL | IC90 (neutralization of pseudovirus) [9]: > 50 µg/mL | IC90 (neutralization of pseudovirus) [10]: > 50 µg/mL | IC90 (neutralization of pseudovirus) [11]: > 50 µg/mL

5147_N06 (PGT-130) (antibody)
IC50, pseudovirus neutralization [12]: > 10 µg/mL | Fold IC50 increase relative to wild-type [13]: 0.7 fold | IC50, pseudovirus neutralization (HIV-1 APV17 Env (HIV-1)): > 10 µg/mL | IC50, pseudovirus neutralization [14]: 0.947 µg/mL

5145_B14 (PGT-127) (antibody)
IC50, pseudovirus neutralization [15]: 9.42 µg/mL | Fold IC50 increase relative to wild-type [16]: 1.8 fold | Fold IC50 increase relative to wild-type [17]: 0.5 fold | IC50, pseudovirus neutralization [18]: 0.029 µg/mL

1495_C14 (PGC14) (antibody)
IC50, Neutralizing Antibody Assay, Virus/Ab Incubation 1 hour [19]: > 50 µg/mL | IC50, Neutralizing Antibody Assay, Virus/Ab Incubation 18 hour [19]: > 50 µg/mL | IC50 [8]: 6 µg/mL | IC50, Neutralizing Antibody Assay, Virus/Ab Incubation 1 hour [20]: 0.35 µg/mL | IC50, Neutralizing Antibody Assay, Virus/Ab Incubation 18 hour [20]: 0.15 µg/mL | IC50, Neutralizing Antibody Assay, Virus/Ab Incubation 1 hour [21]: > 50 µg/mL | IC50, Neutralizing Antibody Assay, Virus/Ab Incubation 18 hour [21]: 0.146 µg/mL

5123_A06 (PGT-125) (antibody)
Fold IC50 increase relative to wild-type [22]: 1.2 fold | IC50, pseudovirus neutralization [15]: 0.013 µg/mL | IC50, pseudovirus neutralization [12]: 0.0262 µg/mL | Fold IC50 increase relative to wild-type [16]: 0.8 fold | Fold IC50 increase relative to wild-type [23]: 3.3 fold | IC50, pseudovirus neutralization (HIV-1 APV17 Env (HIV-1)): 7.31 µg/mL | Fold IC50 increase relative to wild-type [17]: 0.8 fold | IC50, pseudovirus neutralization [14]: > 10 µg/mL | Fold IC50 increase relative to wild-type [24]: 0.2 fold | IC50, pseudovirus neutralization [18]: 0.009 µg/mL

5141_B17 (PGT-126) (antibody)
Fold IC50 increase relative to wild-type [22]: 0.2 fold | Neutralization IC80 [25]: 0.0316 µg/mL | Neutralization IC90 [25]: 0.0655 µg/mL | Neutralization IC95 [25]: 0.128 µg/mL | neutralization IC50 [25]: 0.0091 µg/mL | IC50, pseudovirus neutralization [15]: 0.015 µg/mL | IC50, pseudovirus neutralization [12]: 0.0256 µg/mL | Fold IC50 increase relative to wild-type [23]: 5 fold | IC50, pseudovirus neutralization (HIV-1 APV17 Env (HIV-1)): 0.501 µg/mL | Fold IC50 increase relative to wild-type [17]: 0.4 fold | IC50, pseudovirus neutralization [14]: 1.35 µg/mL | Fold IC50 increase relative to wild-type [24]: 0.2 fold | IC50, pseudovirus neutralization [18]: 0.014 µg/mL

PGT-144 (4970_K22) (antibody)
IC50, pseudovirus neutralization [1]: > 10 µg/mL | IC50, pseudovirus neutralization [2]: > 10 µg/mL | IC50, pseudovirus neutralization [3]: > 10 µg/mL | IC50, pseudovirus neutralization [4]: > 10 µg/mL | IC50, pseudovirus neutralization [5]: > 10 µg/mL | IC50, pseudovirus neutralization [6]: 4.02 µg/mL | IC50, pseudovirus neutralization [7]: 0.128 µg/mL

5345_I01 (PGT-137) (antibody)
EC50 [26]: 0.1 µg/mL

4858_P08 (PGT-123) (antibody)
IC50, pseudovirus neutralization [15]: 0.011 µg/mL | IC50, pseudovirus neutralization [12]: 0.0303 µg/mL | IC50, pseudovirus neutralization (HIV-1 APV17 Env (HIV-1)): 0.18 µg/mL | IC50, pseudovirus neutralization [14]: 0.104 µg/mL | IC50, pseudovirus neutralization [18]: 0.014 µg/mL

4838_L06 (PGT-121) (antibody)
EC50 [26]: > 10 µg/mL

4877_D15 (PGT-122) (antibody)
IC50, pseudovirus neutralization [15]: 0.017 µg/mL | IC50, pseudovirus neutralization [12]: 0.191 µg/mL | IC50, pseudovirus neutralization (HIV-1 APV17 Env (HIV-1)): 0.522 µg/mL | IC50, pseudovirus neutralization [14]: > 10 µg/mL | IC50, pseudovirus neutralization [18]: 0.026 µg/mL

5114_A19 (PGT-128) (antibody)
EC50 [26]: 7.8 µg/mL | Fold IC50 increase relative to wild-type [13]: 1.6 fold

5329_C19 (PGT-136) (antibody)
EC50 [26]: 0.1 µg/mL

PGT-141 (4964_G22; 4993_K13) (antibody)
IC50, pseudovirus neutralization [1]: > 10 µg/mL | IC50, pseudovirus neutralization [2]: > 10 µg/mL | IC50, pseudovirus neutralization [3]: 0.392 µg/mL | IC50, pseudovirus neutralization [4]: > 10 µg/mL | IC50, pseudovirus neutralization [5]: > 10 µg/mL | IC50, pseudovirus neutralization [6]: 0.0563 µg/mL | IC50, pseudovirus neutralization [7]: 0.0047 µg/mL

5136_H01 (PGT-131) (antibody)
Fold IC50 increase relative to wild-type [22]: 2.3 fold | Fold IC50 increase relative to wild-type [16]: 4.5 fold | Fold IC50 increase relative to wild-type [23]: 1.4 fold | Fold IC50 increase relative to wild-type [17]: 1.3 fold | Fold IC50 increase relative to wild-type [24]: 2 fold

1443_C16 (PG16) (TCN-116) (antibody)
IC50, Neutralizing Antibody Assay, Virus/Ab Incubation 1 hour [19]: < 0.0025 µg/mL | IC50, Neutralizing Antibody Assay, Virus/Ab Incubation 18 hour [19]: < 0.0025 µg/mL | IC90 (neutralization of pseudovirus) [27]: 44.3 µg/mL | IC50, Neutralizing Antibody Assay, Virus/Ab Incubation 1 hour [20]: < 0.0025 µg/mL | IC50, Neutralizing Antibody Assay, Virus/Ab Incubation 18 hour [20]: 4.99 µg/mL | IC90 (neutralization of pseudovirus) [9]: > 50 µg/mL | IC90 (neutralization of pseudovirus) [28]: 0.207 µg/mL | IC90 (neutralization of pseudovirus) [10]: > 50 µg/mL | IC90 (neutralization of pseudovirus) [11]: > 50 µg/mL | IC50, Neutralizing Antibody Assay, Virus/Ab Incubation 1 hour [21]: 0.33 µg/mL | IC50, Neutralizing Antibody Assay, Virus/Ab Incubation 18 hour [21]: 0.255 µg/mL

4E10 (antibody)
IC90 (neutralization of pseudovirus) [9]: > 50 µg/mL | IC90 (neutralization of pseudovirus) [28]: > 50 µg/mL | IC90 (neutralization of pseudovirus) [10]: 16.4 µg/mL | IC90 (neutralization of pseudovirus) [11]: > 50 µg/mL

2G12 (antibody)
IC50 [8]: > 50 µg/mL | IC90 (neutralization of pseudovirus) [9]: > 50 µg/mL | IC90 (neutralization of pseudovirus) [28]: > 50 µg/mL | IC90 (neutralization of pseudovirus) [10]: > 50 µg/mL | IC90 (neutralization of pseudovirus) [11]: 24.1 µg/mL

PGT-142 (4995_E20) (antibody)
IC50, pseudovirus neutralization [1]: > 10 µg/mL | IC50, pseudovirus neutralization [2]: > 10 µg/mL | IC50, pseudovirus neutralization [3]: 0.22 µg/mL | IC50, pseudovirus neutralization [4]: > 10 µg/mL | IC50, pseudovirus neutralization [5]: > 10 µg/mL | IC50, pseudovirus neutralization [6]: 0.0578 µg/mL | IC50, pseudovirus neutralization [7]: 0.0085 µg/mL

5343_B08 (PGT-135) (antibody)
EC50 [26]: 0.2 µg/mL | Neutralization IC80 [1]: > 10 µg/mL | Neutralization IC90 [1]: > 10 µg/mL | Neutralization IC95 [1]: > 10 µg/mL | neutralization IC50 [1]: > 10 µg/mL | Neutralization IC80 [2]: 0.2 µg/mL | Neutralization IC90 [2]: > 10 µg/mL | Neutralization IC95 [2]: > 10 µg/mL | neutralization IC50 [2]: 0.0433 µg/mL | Neutralization IC80 [3]: > 10 µg/mL | Neutralization IC90 [3]: > 10 µg/mL | Neutralization IC95 [3]: > 10 µg/mL | neutralization IC50 [3]: > 10 µg/mL | Neutralization IC80 [4]: > 10 µg/mL | Neutralization IC90 [4]: > 10 µg/mL | Neutralization IC95 [4]: > 10 µg/mL | neutralization IC50 [4]: > 10 µg/mL | Neutralization IC80 [6]: > 10 µg/mL | Neutralization IC90 [6]: > 10 µg/mL | Neutralization IC95 [6]: > 10 µg/mL | neutralization IC50 [6]: > 10 µg/mL | Fold IC50 increase relative to wild-type [23]: 2 fold | Fold IC50 increase relative to wild-type [13]: 2.1 fold | Fold IC50 increase relative to wild-type [17]: 2.1 fold | Fold IC50 increase relative to wild-type [24]: 0.36 fold | Neutralization IC80 [7]: 0.503 µg/mL | Neutralization IC90 [7]: 1.47 µg/mL | Neutralization IC95 [7]: 8.3 µg/mL | neutralization IC50 [7]: 0.113 µg/mL

b12 (antibody)
IC90 (neutralization of pseudovirus) [27]: > 50 µg/mL | IC50 [8]: > 50 µg/mL | IC90 (neutralization of pseudovirus) [9]: > 50 µg/mL | IC90 (neutralization of pseudovirus) [28]: > 50 µg/mL | IC90 (neutralization of pseudovirus) [10]: 29.6 µg/mL | IC90 (neutralization of pseudovirus) [11]: > 50 µg/mL
